# Several values for one entry are separate records, joined by “and”; a condition that tells them apart may be missing. Equal values may be shown once.
# How the values were obtained:
# [1] = target: hamster integrin subunit β1 on CHO cells (hamster); assay: flow cytometry, CD9-CHO-B2 cells
# [2] = target: hamster integrin subunit β1 on CHO cells (hamster); assay: flow cytometry, CD9-CHO-K1 cells
# [3] = target: hamster integrin subunit β1 on CHO cells (hamster); assay: flow cytometry, MOCK-CHO-B2 cells
# [4] = target: hamster integrin subunit β1 on CHO cells (hamster); assay: flow cytometry, MOCK-CHO-K1 cells
# [5] = target: hamster integrin α5β1 on CHO cells (hamster); assay: flow cytometry, CD9-CHO-K1 cells
# [6] = target: hamster integrin α5β1 on CHO cells (hamster); assay: flow cytometry, MOCK-CHO-K1 cells
# [7] = target: His6-rCD9 (human) (UniProt P21926); assay: ELISA, absolute values, FN on immobilized His6-rCD9
# Sequence of His6-rCD9 (human) (P21926 whole entry): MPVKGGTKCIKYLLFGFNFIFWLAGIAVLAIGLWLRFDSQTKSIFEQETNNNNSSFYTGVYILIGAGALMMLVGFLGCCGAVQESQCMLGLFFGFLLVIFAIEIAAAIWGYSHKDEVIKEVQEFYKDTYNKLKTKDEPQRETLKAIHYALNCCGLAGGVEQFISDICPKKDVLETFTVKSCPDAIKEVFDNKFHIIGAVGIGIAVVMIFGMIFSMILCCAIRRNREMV
# [8] = target: peptide 5 (human); assay: ELISA, FN 75 µg/ml on immobilized peptide (10 µM coat)
# Sequence of peptide 5 (human) (chain, as listed by the source): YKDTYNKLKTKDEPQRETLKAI
# [9] = target: peptide 6 (human); assay: as above
# Sequence of peptide 6 (human) (chain, as listed by the source): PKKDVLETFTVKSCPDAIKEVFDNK
# [10] = target: His6-rCD9 (human) (UniProt P21926); assay: ELISA, FN titrated on immobilized His6-rCD9, 2.5 mM Ca2+
# [11] = target: purified platelet CD9 (human) (UniProt P21926); assay: ELISA, FN titrated on immobilized platelet CD9, 2.5 mM CaCl2
# Sequence of purified platelet CD9 (human) (P21926 2-228 limits assumed): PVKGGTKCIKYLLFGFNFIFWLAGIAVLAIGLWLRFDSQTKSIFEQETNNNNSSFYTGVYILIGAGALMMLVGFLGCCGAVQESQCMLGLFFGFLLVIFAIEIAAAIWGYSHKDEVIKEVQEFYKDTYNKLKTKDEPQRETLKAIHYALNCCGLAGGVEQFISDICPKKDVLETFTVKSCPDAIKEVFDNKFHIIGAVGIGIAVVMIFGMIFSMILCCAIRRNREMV
# Sequence of human plasma fibronectin, P02751 32-2296 (ligand) (P02751 other isoform, or with tags, fused parts or gaps limits assumed): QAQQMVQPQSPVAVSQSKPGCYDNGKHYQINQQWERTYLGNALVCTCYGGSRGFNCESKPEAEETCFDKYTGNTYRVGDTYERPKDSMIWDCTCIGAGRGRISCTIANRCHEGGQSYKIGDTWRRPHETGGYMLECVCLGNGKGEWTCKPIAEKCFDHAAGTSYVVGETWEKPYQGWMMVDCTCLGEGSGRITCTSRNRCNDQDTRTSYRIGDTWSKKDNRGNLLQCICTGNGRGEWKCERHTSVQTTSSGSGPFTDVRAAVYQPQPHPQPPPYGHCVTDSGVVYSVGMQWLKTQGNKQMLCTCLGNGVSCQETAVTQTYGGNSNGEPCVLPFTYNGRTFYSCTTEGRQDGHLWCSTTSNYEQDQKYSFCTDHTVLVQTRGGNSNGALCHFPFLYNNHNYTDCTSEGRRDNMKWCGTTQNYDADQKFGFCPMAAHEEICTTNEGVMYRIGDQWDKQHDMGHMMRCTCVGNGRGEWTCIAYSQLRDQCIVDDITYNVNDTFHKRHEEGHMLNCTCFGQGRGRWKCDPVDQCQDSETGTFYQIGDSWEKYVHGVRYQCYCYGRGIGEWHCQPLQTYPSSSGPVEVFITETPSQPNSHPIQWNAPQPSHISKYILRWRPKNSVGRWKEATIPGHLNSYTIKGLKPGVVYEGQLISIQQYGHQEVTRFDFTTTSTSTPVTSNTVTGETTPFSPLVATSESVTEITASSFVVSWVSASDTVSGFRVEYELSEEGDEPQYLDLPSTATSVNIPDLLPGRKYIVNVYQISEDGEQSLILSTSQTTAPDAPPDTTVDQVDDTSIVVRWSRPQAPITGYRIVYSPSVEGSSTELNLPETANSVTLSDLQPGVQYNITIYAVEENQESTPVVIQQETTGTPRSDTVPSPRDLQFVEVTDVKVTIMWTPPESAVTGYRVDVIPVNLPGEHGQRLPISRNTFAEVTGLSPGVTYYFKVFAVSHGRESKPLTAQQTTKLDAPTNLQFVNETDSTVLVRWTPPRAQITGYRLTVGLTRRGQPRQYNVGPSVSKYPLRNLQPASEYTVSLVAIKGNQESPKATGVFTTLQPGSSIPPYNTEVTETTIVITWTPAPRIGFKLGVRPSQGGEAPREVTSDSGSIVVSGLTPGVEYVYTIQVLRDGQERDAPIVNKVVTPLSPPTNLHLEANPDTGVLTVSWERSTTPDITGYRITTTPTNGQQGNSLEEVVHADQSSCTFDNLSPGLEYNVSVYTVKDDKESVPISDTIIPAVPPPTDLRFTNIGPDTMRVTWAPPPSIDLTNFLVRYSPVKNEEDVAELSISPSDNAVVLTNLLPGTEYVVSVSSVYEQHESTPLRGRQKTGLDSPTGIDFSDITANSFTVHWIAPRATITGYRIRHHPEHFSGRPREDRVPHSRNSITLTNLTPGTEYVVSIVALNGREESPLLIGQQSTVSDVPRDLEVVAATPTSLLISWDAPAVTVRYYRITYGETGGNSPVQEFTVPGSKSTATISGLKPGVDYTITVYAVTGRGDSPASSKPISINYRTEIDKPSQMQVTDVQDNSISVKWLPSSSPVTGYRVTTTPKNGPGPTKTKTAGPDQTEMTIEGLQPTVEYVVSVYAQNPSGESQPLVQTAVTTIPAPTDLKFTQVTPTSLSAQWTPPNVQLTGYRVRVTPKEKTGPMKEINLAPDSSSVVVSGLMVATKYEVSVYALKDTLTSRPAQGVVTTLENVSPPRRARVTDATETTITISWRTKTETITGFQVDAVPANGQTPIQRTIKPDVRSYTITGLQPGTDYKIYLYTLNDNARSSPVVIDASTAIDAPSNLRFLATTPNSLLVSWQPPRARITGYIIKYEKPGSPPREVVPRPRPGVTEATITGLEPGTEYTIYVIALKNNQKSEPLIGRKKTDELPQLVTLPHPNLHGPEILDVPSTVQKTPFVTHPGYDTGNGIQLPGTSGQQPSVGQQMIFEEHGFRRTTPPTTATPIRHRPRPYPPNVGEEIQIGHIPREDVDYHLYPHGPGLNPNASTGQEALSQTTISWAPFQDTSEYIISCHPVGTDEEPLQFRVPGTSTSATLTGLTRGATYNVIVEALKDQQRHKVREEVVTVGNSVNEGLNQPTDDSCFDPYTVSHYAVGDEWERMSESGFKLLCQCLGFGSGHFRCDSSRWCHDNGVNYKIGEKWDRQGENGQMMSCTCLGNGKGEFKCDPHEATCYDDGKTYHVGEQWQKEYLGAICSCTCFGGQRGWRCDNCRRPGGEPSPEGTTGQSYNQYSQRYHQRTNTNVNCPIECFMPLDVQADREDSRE
substance,measurement,setting,value
antibody 7E2,% positive,[1],100%
same,Fold-increase (over isotype control) (fold MFI over isotype control),[1],6
same,% positive,[2],97%
same,Fold-increase (over isotype control) (fold MFI over isotype control),[2],6
same,% positive,[3],100%
same,Fold-increase (over isotype control) (fold MFI over isotype control),[3],0
same,% positive,[4],100%
same,Fold-increase (over isotype control) (fold MFI over isotype control),[4],7
antibody PB1,% positive,[5],98%
same,Fold-increase (over isotype control) (fold MFI over isotype control),[5],4
same,% positive,[6],100%
same,Fold-increase (over isotype control) (fold MFI over isotype control),[6],4
"human plasma fibronectin, P02751 32-2296 (ligand)",ELISA binding against purified CD9 (% lower than purified CD9),[7],40
same,binding relative to intact platelet purified CD9 (% of binding to platelet CD9),[8],19
same,binding relative to intact platelet purified CD9 (% of binding to platelet CD9),[9],65
same,EC50,[10],120 nM
same,EC50,[11],35.6 µg/mL and 81 nM

# Reference: patent US20040136985A1, “Methods of modifying behavior of CD9-expressing cells” (priority 2002, published 2004)
